Reference: patent publication EP4736885A1 (CSPC Megalith Biopharmaceutical Co., Ltd., dated 2025)

T1: B7H3 on B7H3-positive human melanoma A375 cells (human, UniProt Q5ZPR3 29-534)
T1 construct: whole, on cells; Endogenous B7H3 on A375 cells; also called B7H3-positive A375 cells
T1 sequence (looked up): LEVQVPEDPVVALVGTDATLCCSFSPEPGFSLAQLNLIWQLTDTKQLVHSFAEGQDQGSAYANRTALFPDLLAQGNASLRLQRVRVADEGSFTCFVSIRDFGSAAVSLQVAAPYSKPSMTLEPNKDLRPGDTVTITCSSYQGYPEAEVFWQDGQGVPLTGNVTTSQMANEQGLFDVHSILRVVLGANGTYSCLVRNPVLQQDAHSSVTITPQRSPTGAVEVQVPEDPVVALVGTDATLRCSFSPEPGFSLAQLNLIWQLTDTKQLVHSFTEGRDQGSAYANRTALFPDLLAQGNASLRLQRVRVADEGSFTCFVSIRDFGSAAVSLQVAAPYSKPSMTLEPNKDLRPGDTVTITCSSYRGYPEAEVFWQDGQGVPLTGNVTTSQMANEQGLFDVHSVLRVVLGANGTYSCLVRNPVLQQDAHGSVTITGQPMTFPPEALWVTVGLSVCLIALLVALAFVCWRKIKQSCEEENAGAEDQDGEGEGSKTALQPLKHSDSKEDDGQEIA

T2: His-tagged human B7H3 protein (purchased from Beijing ACROBiosystems Co., Ltd.) (human, UniProt Q5ZPR3-2 29-245, limits assumed)
T2 construct: not shown: His tag
T2 sequence (looked up): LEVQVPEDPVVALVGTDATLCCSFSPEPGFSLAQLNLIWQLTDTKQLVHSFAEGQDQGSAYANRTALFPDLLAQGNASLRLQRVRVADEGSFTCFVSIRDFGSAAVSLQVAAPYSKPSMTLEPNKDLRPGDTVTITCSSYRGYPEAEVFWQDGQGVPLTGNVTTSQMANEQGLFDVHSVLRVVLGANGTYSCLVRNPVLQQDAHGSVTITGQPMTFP


Assays:
[1] = target: T1, B7H3 on B7H3-positive human melanoma …; assay: flow cytometry on B7H3-positive A375 cells, MFI
[2] = target: T2, His-tagged human B7H3 protein …; assay: ELISA, His-tagged human B7H3 coated on plate, anti-human IgG-HRP

EC50 [1] [ng/mL] | EC50 [2] [ng/mL] | Binder
37.8 |  | antibody-drug conjugate 43B-045-6 (antibody, human IgG1, kappa, L234A L235A, linker-drug compound 045 (exatecan) on thiols of reduced interchain cysteines; DAR of the whole conjugate 5.7) heavy: QVQLVQSGAEVKKPGASVKVSCKASGYTFTDYFMNWVRQAPGQGLEWMGDVNPKTGSPSYNQKFKGRVTMTRDTSTSTVYMELSSLRSEDTAVYYCARRYGFLYSMDYWGQGTSVTVSSASTKGPSVFPLAPSSKSTSGGTAALGCLVKDYFPEPVTVSWNSGALTSGVHTFPAVLQSSGLYSLSSVVTVPSSSLGTQTYICNVNHKPSNTKVDKRVEPKSCDKTHTSPPCPAPEAAGGPSVFLFPPKPKDTLMISRTPEVTCVVVDVSHEDPEVKFNWYVDGVEVHNAKTKPREEQYNSTYRVVSVLTVLHQDWLNGKEYKCKVSNKALAASIEKTISKAKGQPREPQVYTLPPSREEMTKNQVSLTCLVKGFYPSDIAVEWESNGQPENNYKTTPPVLDSDGSFFLYSKLTVDKSRWQQGNVFSCSVMHEALHNHYTQKSLSLSPGK light: not shown
 | 1.19 | antibody-drug conjugate 43A-DXd (antibody, human IgG1, kappa, L234A L235A, deruxtecan linker-drug on thiols of reduced interchain cysteines; DAR of the whole conjugate 7.4) heavy: QVQLVQSGAEVKKPGASVKVSCKASGYTFTDYFMNWVRQAPGQGLEWMGDVNPKTGSPSYNQKFKGRVTMTRDTSTSTVYMELSSLRSEDTAVYYCARRYGFLYSMDYWGQGTSVTVSSASTKGPSVFPLAPSSKSTSGGTAALGCLVKDYFPEPVTVSWNSGALTSGVHTFPAVLQSSGLYSLSSVVTVPSSSLGTQTYICNVNHKPSNTKVDKRVEPKSCDKTHTCPPCPAPEAAGGPSVFLFPPKPKDTLMISRTPEVTCVVVDVSHEDPEVKFNWYVDGVEVHNAKTKPREEQYNSTYRVVSVLTVLHQDWLNGKEYKCKVSNKALAASIEKTISKAKGQPREPQVYTLPPSREEMTKNQVSLTCLVKGFYPSDIAVEWESNGQPENNYKTTPPVLDSDGSFFLYSKLTVDKSRWQQGNVFSCSVMHEALHNHYTQKSLSLSPGK light: not shown
 | 1.09 | antibody-drug conjugate 43A-043 (antibody, human IgG1, kappa, L234A L235A, linker-drug compound B_3 (exatecan) on thiols of reduced interchain cysteines; DAR of the whole conjugate 7.8) heavy: QVQLVQSGAEVKKPGASVKVSCKASGYTFTDYFMNWVRQAPGQGLEWMGDVNPKTGSPSYNQKFKGRVTMTRDTSTSTVYMELSSLRSEDTAVYYCARRYGFLYSMDYWGQGTSVTVSSASTKGPSVFPLAPSSKSTSGGTAALGCLVKDYFPEPVTVSWNSGALTSGVHTFPAVLQSSGLYSLSSVVTVPSSSLGTQTYICNVNHKPSNTKVDKRVEPKSCDKTHTCPPCPAPEAAGGPSVFLFPPKPKDTLMISRTPEVTCVVVDVSHEDPEVKFNWYVDGVEVHNAKTKPREEQYNSTYRVVSVLTVLHQDWLNGKEYKCKVSNKALAASIEKTISKAKGQPREPQVYTLPPSREEMTKNQVSLTCLVKGFYPSDIAVEWESNGQPENNYKTTPPVLDSDGSFFLYSKLTVDKSRWQQGNVFSCSVMHEALHNHYTQKSLSLSPGK light: not shown
54.5 | 1.02 | anti-B7H3 antibody 43A (antibody, human IgG1, kappa, L234A L235A, 2 identical heavy chains and 2 identical light chains) heavy: QVQLVQSGAEVKKPGASVKVSCKASGYTFTDYFMNWVRQAPGQGLEWMGDVNPKTGSPSYNQKFKGRVTMTRDTSTSTVYMELSSLRSEDTAVYYCARRYGFLYSMDYWGQGTSVTVSSASTKGPSVFPLAPSSKSTSGGTAALGCLVKDYFPEPVTVSWNSGALTSGVHTFPAVLQSSGLYSLSSVVTVPSSSLGTQTYICNVNHKPSNTKVDKRVEPKSCDKTHTCPPCPAPEAAGGPSVFLFPPKPKDTLMISRTPEVTCVVVDVSHEDPEVKFNWYVDGVEVHNAKTKPREEQYNSTYRVVSVLTVLHQDWLNGKEYKCKVSNKALAASIEKTISKAKGQPREPQVYTLPPSREEMTKNQVSLTCLVKGFYPSDIAVEWESNGQPENNYKTTPPVLDSDGSFFLYSKLTVDKSRWQQGNVFSCSVMHEALHNHYTQKSLSLSPGK light: not shown
 | 1.17 | antibody-drug conjugate 43A-042 (antibody, human IgG1, kappa, L234A L235A, linker-drug compound A_10 (exatecan) on thiols of reduced interchain cysteines; DAR of the whole conjugate 7.6) heavy: QVQLVQSGAEVKKPGASVKVSCKASGYTFTDYFMNWVRQAPGQGLEWMGDVNPKTGSPSYNQKFKGRVTMTRDTSTSTVYMELSSLRSEDTAVYYCARRYGFLYSMDYWGQGTSVTVSSASTKGPSVFPLAPSSKSTSGGTAALGCLVKDYFPEPVTVSWNSGALTSGVHTFPAVLQSSGLYSLSSVVTVPSSSLGTQTYICNVNHKPSNTKVDKRVEPKSCDKTHTCPPCPAPEAAGGPSVFLFPPKPKDTLMISRTPEVTCVVVDVSHEDPEVKFNWYVDGVEVHNAKTKPREEQYNSTYRVVSVLTVLHQDWLNGKEYKCKVSNKALAASIEKTISKAKGQPREPQVYTLPPSREEMTKNQVSLTCLVKGFYPSDIAVEWESNGQPENNYKTTPPVLDSDGSFFLYSKLTVDKSRWQQGNVFSCSVMHEALHNHYTQKSLSLSPGK light: not shown
61.2 | 1.05 | anti-B7H3 antibody 43B (antibody, human IgG1, kappa, L234A L235A, 2 identical heavy chains and 2 identical light chains) heavy: QVQLVQSGAEVKKPGASVKVSCKASGYTFTDYFMNWVRQAPGQGLEWMGDVNPKTGSPSYNQKFKGRVTMTRDTSTSTVYMELSSLRSEDTAVYYCARRYGFLYSMDYWGQGTSVTVSSASTKGPSVFPLAPSSKSTSGGTAALGCLVKDYFPEPVTVSWNSGALTSGVHTFPAVLQSSGLYSLSSVVTVPSSSLGTQTYICNVNHKPSNTKVDKRVEPKSCDKTHTSPPCPAPEAAGGPSVFLFPPKPKDTLMISRTPEVTCVVVDVSHEDPEVKFNWYVDGVEVHNAKTKPREEQYNSTYRVVSVLTVLHQDWLNGKEYKCKVSNKALAASIEKTISKAKGQPREPQVYTLPPSREEMTKNQVSLTCLVKGFYPSDIAVEWESNGQPENNYKTTPPVLDSDGSFFLYSKLTVDKSRWQQGNVFSCSVMHEALHNHYTQKSLSLSPGK light: not shown
 | 1.16 | antibody-drug conjugate 43B-042 (antibody, human IgG1, kappa, L234A L235A, linker-drug compound A_10 (exatecan) on thiols of reduced interchain cysteines; DAR of the whole conjugate 5.9) heavy: QVQLVQSGAEVKKPGASVKVSCKASGYTFTDYFMNWVRQAPGQGLEWMGDVNPKTGSPSYNQKFKGRVTMTRDTSTSTVYMELSSLRSEDTAVYYCARRYGFLYSMDYWGQGTSVTVSSASTKGPSVFPLAPSSKSTSGGTAALGCLVKDYFPEPVTVSWNSGALTSGVHTFPAVLQSSGLYSLSSVVTVPSSSLGTQTYICNVNHKPSNTKVDKRVEPKSCDKTHTSPPCPAPEAAGGPSVFLFPPKPKDTLMISRTPEVTCVVVDVSHEDPEVKFNWYVDGVEVHNAKTKPREEQYNSTYRVVSVLTVLHQDWLNGKEYKCKVSNKALAASIEKTISKAKGQPREPQVYTLPPSREEMTKNQVSLTCLVKGFYPSDIAVEWESNGQPENNYKTTPPVLDSDGSFFLYSKLTVDKSRWQQGNVFSCSVMHEALHNHYTQKSLSLSPGK light: not shown
 | 1.05 | antibody-drug conjugate 43B-043 (antibody, human IgG1, kappa, L234A L235A, linker-drug compound B_3 (exatecan) on thiols of reduced interchain cysteines; DAR of the whole conjugate 5.9) heavy: QVQLVQSGAEVKKPGASVKVSCKASGYTFTDYFMNWVRQAPGQGLEWMGDVNPKTGSPSYNQKFKGRVTMTRDTSTSTVYMELSSLRSEDTAVYYCARRYGFLYSMDYWGQGTSVTVSSASTKGPSVFPLAPSSKSTSGGTAALGCLVKDYFPEPVTVSWNSGALTSGVHTFPAVLQSSGLYSLSSVVTVPSSSLGTQTYICNVNHKPSNTKVDKRVEPKSCDKTHTSPPCPAPEAAGGPSVFLFPPKPKDTLMISRTPEVTCVVVDVSHEDPEVKFNWYVDGVEVHNAKTKPREEQYNSTYRVVSVLTVLHQDWLNGKEYKCKVSNKALAASIEKTISKAKGQPREPQVYTLPPSREEMTKNQVSLTCLVKGFYPSDIAVEWESNGQPENNYKTTPPVLDSDGSFFLYSKLTVDKSRWQQGNVFSCSVMHEALHNHYTQKSLSLSPGK light: not shown
125 |  | M30 antibody (CN103687945B) (antibody, human IgG1, kappa, V domains shown, also called M30-H1/M30-L4) VH: QVQLVQSGAEVKKPGSSVKVSCKASGYTFTNYVMHWVRQAPGQGLEWMGYINPYNDDVKYNEKFKGRVTITADESTSTAYMELSSLRSEDTAVYYCARWGYYGSPLYYFDYWGQGTLVTVSS VL: EIVLTQSPATLSLSPGERATLSCRASSRLIYMHWYQQKPGQAPRPLIYATSNLASGIPARFSGSGSGTDFTLTISSLEPEDFAVYYCQQWNSNPPTFGQGTKVEIKR
